Laboratory results published in PMC6269598.

Experiments:
[1] = SEC; each antibody alone at 100 mg/mL (second study also 50 mg/mL) in 20 mM acetate, 9% sucrose, 0.01% polysorbate 80, pH 5.2, stored at 40°C (also 25°C) up to 12 weeks; diluted 100-fold before SE-HPLC; TSKgel G3000SWxl, 0.2 M sodium phosphate pH 6.8, column at 30°C; dimer and multimer defined by …
[2] = biological target: 3BNC117; test: SEC; each antibody alone, stored at 30°C; data not shown
[3] = biological target: 3BNC117; test: SEC; each antibody alone at 100 mg/mL (second study also 50 mg/mL) in 20 mM acetate, 9% sucrose, 0.01% polysorbate 80, pH 5.2, stored at 40°C (also 25°C) up to 12 weeks; diluted 100-fold before SE-HPLC; TSKgel G3000SWxl, 0.2 M sodium phosphate pH 6.8, column at 30°C; dimer and multimer defined by elution time relative to the monomer
[4] = biological target: PGT121; test: SEC; each antibody alone, stored at 30°C; data not shown

Substance: 3BNC117
- increase of the dimer's share of the SE-HPLC area against day 0 (12 weeks, 40°C) [1]: ∼6% increase compared to day 0 at 40 °C

Substance: 3BNC117 (antibody)
- stoichiometry N [2]: 2
- rate of dimer formation at 40°C relative to PGT121 [3]: 3.5 fold
- stoichiometry N [3]: 2

Substance: PGT121
- increase of the multimers' share of the SE-HPLC area against day 0 (12 weeks, 40°C) [1]: ∼3% increase compared to day 0 at 40 °C

Substance: PGT121 (antibody)
- stoichiometry N [4]: 2
